Test results as given in PMC12731327, “Structural Analysis of the Putative Succinyl-Diaminopimelic Acid Desuccinylase DapE from Campylobacter jejuni: Captopril-Mediated Structural Stabilization” (Current Issues in Molecular Biology, 2025).

Molecular target: the molecule itself
Experiment: SEC; 100 μg tag-free cjDapE on Superdex 200 10/300, 20 mM Tris pH 8.0, 150 mM NaCl, 5 mM β-mercaptoethanol; size by calibration with gel-filtration standards

B1: Campylobacter jejuni DapE (N-succinyl-L,L-diaminopimelic acid desuccinylase) (enzyme, UniProt Q0P9K4 1-365, looked up)
chain: MNAKEFLIELLKFKSVTPNDDGALNFIAMELSDFEAFFIEKEGIKNLLLTKKFKDEGEHLAFGGHVDVVPAGEGWSNNAFAPVEKEGFIYARGAQDMKSGVAAFVDAAKNADFKGARLSLILTSDEEGEAIYGTKAVLEWMQERDMLPDYAVVAEPTCVKKIGDSIKIGRRGSINGKLLIRGKQGHVAYPEKCINPVHDFAPVLKLLAGFDLDPGSAEFSPSKIVITDIRGGMGVCNVTPNDLKLMFNVRNSPDTSLEDVKSYVEKICHGLNYELELKQSSEAFLTNIDNKIVQKMNESVQKITHEVPELNTKGGTSDARYFAKYGVKVVEFGVCNDRIHAIDERVSIEEFEKLCLVFKDLIENF
notes: DapE of Campylobacter jejuni (ATCC 33291 genomic DNA), gene dapE (cj1048c), 365-residue protein, residues 1-365; in one crystal also captopril; The His6 tag was removed with thrombin; also called cjDapE; cjDapEZn; source: E. coli BL21 (DE3), purified (Ni-NTA, thrombin cleavage, Mono Q anion exchange); not shown: His6, N-terminal, cleaved
stoichiometry N: 2
